The results in this text go back to patent US20170015742A1 (published 2017).

The labels stand for the following.
B1: 9E10.6_GS_CL-33675 (PR-1612492) (bispecific antibody, human IgG1, kappa, L234A L235A)
heavy: EVQLVQSGAEVKKPGSSVKVSCKASGYTFTNYGMYWVRQAPGQGLEWMGWIDTETGRPTYADDFKGRFTFTADKSTSTAYMELSSLRSEDTAVYYCARWSGDTTGIRGPWFAYWGQGTLVTVSSGGGGSGGGGSEVTLRESGPALVKPTQTLTLTCTFSGFSLSTYGMGVGWIRQPPGKALEWLANIWWDDDKYYNPSLKNRLTISKDTSKNQVVLTMTNMDPVDTATYYCARIESSGPKYSFDYWGQGTMVTVSSASTKGPSVFPLAPSSKSTSGGTAALGCLVKDYFPEPVTVSWNSGALTSGVHTFPAVLQSSGLYSLSSVVTVPSSSLGTQTYICNVNHKPSNTKVDKKVEPKSCDKTHTCPPCPAPEAAGGPSVFLFPPKPKDTLMISRTPEVTCVVVDVSHEDPEVKFNWYVDGVEVHNAKTKPREEQYNSTYRVVSVLTVLHQDWLNGKEYKCKVSNKALPAPIEKTISKAKGQPREPQVYTLPPSREEMTKNQVSLTCLVKGFYPSDIAVEWESNGQPENNYKTTPPVLDSDGSFFLYSKLTVDKSRWQQGNVFSCSVMHEALHNAYTQKSLSLSPGK
light: DIRMTQSPSSLSASVGDRVTITCLASEDIYSDLAWYQQKPGKSPKLLIYNANGLQNGVPSRFSGSGSGTDYTLTISSLQPEDVATYFCQQYNYFPGTFGQGTKLEIKGGSGGGGSGGEIVLTQSPGTLSLSPGERATLSCRASSGSIWYSFVSWYQQKPGQAPRLLIYADDQRASGIPDRFSGSGSGTDFTLTISRLEPEDFAVYYCQSYGINIDVVFGGGTKVEIKRTVAAPSVFIFPPSDEQLKSGTASVVCLLNNFYPREAKVQWKVDNALQSGNSQESVTEQDSKDSTYSLSSTLTLSKADYEKHKVYACEVTHQGLSSPVTKSFNRGEC
notes: DVD-Ig: outer hBEW-9E10.6 (VEGF), inner CL-33675 (PDGF), linkers GS-H10 / GS-L10(dR); Human IgG1 L234A, L235A, H435A with kappa light chain
B2: 9E10.6_GS_3E2.1 (PR-1610563) (bispecific antibody, human IgG1, kappa, L234A L235A)
heavy: EVQLVQSGAEVKKPGSSVKVSCKASGYTFTNYGMYWVRQAPGQGLEWMGWIDTETGRPTYADDFKGRFTFTADKSTSTAYMELSSLRSEDTAVYYCARWSGDTTGIRGPWFAYWGQGTLVTVSSGGGGSGGGGSEVQLVQSGAEVKKPGSSVKVSCKASGYTFTESYMYWVKQAPGQGLELIGRIDPEDGSTDYVEKFKNKATLTADKSTSTAYMELSSLRSEDTAVYFCARFGARSYFYPMDAWGQGTTVTVSSASTKGPSVFPLAPSSKSTSGGTAALGCLVKDYFPEPVTVSWNSGALTSGVHTFPAVLQSSGLYSLSSVVTVPSSSLGTQTYICNVNHKPSNTKVDKKVEPKSCDKTHTCPPCPAPEAAGGPSVFLFPPKPKDTLMISRTPEVTCVVVDVSHEDPEVKFNWYVDGVEVHNAKTKPREEQYNSTYRVVSVLTVLHQDWLNGKEYKCKVSNKALPAPIEKTISKAKGQPREPQVYTLPPSREEMTKNQVSLTCLVKGFYPSDIAVEWESNGQPENNYKTTPPVLDSDGSFFLYSKLTVDKSRWQQGNVFSCSVMHEALHNAYTQKSLSLSPGK
light: DIRMTQSPSSLSASVGDRVTITCLASEDIYSDLAWYQQKPGKSPKLLIYNANGLQNGVPSRFSGSGSGTDYTLTISSLQPEDVATYFCQQYNYFPGTFGQGTKLEIKGGSGGGGSGGETVLTQSPATLSLSPGERATLSCRASESVSTLMHWYQQKPGQQPRLLIYGASNLESGVPARFSGSGSGTDFTLTISSLEPEDFAVYFCQQSWNDPWTFGGGTKVEIKRTVAAPSVFIFPPSDEQLKSGTASVVCLLNNFYPREAKVQWKVDNALQSGNSQESVTEQDSKDSTYSLSSTLTLSKADYEKHKVYACEVTHQGLSSPVTKSFNRGEC
notes: DVD-Ig: outer hBEW-9E10.6 (VEGF), inner hBFU-3E2.1 (PDGF), linkers GS-H10 / GS-L10(dR); Human IgG1 L234A, L235A, H435A with kappa light chain
B3: 1B10.1_GS_CL-33675 (PR-1611292) (bispecific antibody, human IgG1, kappa, L234A L235A)
heavy: EVQLVESGGGLVQPGGSLRLSCAASGFSFSKYDMAWFRQAPGKGLEWVASITTSGVGTYYRDSVKGRFTVSRDNAKSTLYLQMNSLRAEDTAVYYCARGYGAMDAWGQGTTVTVSSGGGGSGGGGSEVTLRESGPALVKPTQTLTLTCTFSGFSLSTYGMGVGWIRQPPGKALEWLANIWWDDDKYYNPSLKNRLTISKDTSKNQVVLTMTNMDPVDTATYYCARIESSGPKYSFDYWGQGTMVTVSSASTKGPSVFPLAPSSKSTSGGTAALGCLVKDYFPEPVTVSWNSGALTSGVHTFPAVLQSSGLYSLSSVVTVPSSSLGTQTYICNVNHKPSNTKVDKKVEPKSCDKTHTCPPCPAPEAAGGPSVFLFPPKPKDTLMISRTPEVTCVVVDVSHEDPEVKFNWYVDGVEVHNAKTKPREEQYNSTYRVVSVLTVLHQDWLNGKEYKCKVSNKALPAPIEKTISKAKGQPREPQVYTLPPSREEMTKNQVSLTCLVKGFYPSDIAVEWESNGQPENNYKTTPPVLDSDGSFFLYSKLTVDKSRWQQGNVFSCSVMHEALHNAYTQKSLSLSPGK
light: DIQMTQSPSSLSASVGDRVTITCKASQDIDDYLSWYQQKPGKSPKLVIYAATRLADGVPSRFSGSGSGTDYTLTISSLQPEDFATYYCLQSSSTPWTFGGGTKVEIKGGSGGGGSGGEIVLTQSPGTLSLSPGERATLSCRASSGSIWYSFVSWYQQKPGQAPRLLIYADDQRASGIPDRFSGSGSGTDFTLTISRLEPEDFAVYYCQSYGINIDVVFGGGTKVEIKRTVAAPSVFIFPPSDEQLKSGTASVVCLLNNFYPREAKVQWKVDNALQSGNSQESVTEQDSKDSTYSLSSTLTLSKADYEKHKVYACEVTHQGLSSPVTKSFNRGEC
notes: DVD-Ig: outer hBEW-1B10.1 (VEGF), inner CL-33675 (PDGF), linkers GS-H10 / GS-L10(dR); Human IgG1 L234A, L235A, H435A with kappa light chain
B4: 1E3.4_GS_3E2.1 (PR-1612495) (bispecific antibody, human IgG1, kappa, L234A L235A)
heavy: EIQLVQSGSELKKPGASVKVSCKASGYPFTNSGMYWVKQAPGQGLEYMGWINTEAGKPTYADDFKGRFVFSLDTSVSTAYLQISSLKAEDTAVYFCARWGYISDNSYGWFDYWGQGTLVTVSSGGGGSGGGGSEVQLVQSGAEVKKPGSSVKVSCKASGYTFTESYMYWVKQAPGQGLELIGRIDPEDGSTDYVEKFKNKATLTADKSTSTAYMELSSLRSEDTAVYFCARFGARSYFYPMDAWGQGTTVTVSSASTKGPSVFPLAPSSKSTSGGTAALGCLVKDYFPEPVTVSWNSGALTSGVHTFPAVLQSSGLYSLSSVVTVPSSSLGTQTYICNVNHKPSNTKVDKKVEPKSCDKTHTCPPCPAPEAAGGPSVFLFPPKPKDTLMISRTPEVTCVVVDVSHEDPEVKFNWYVDGVEVHNAKTKPREEQYNSTYRVVSVLTVLHQDWLNGKEYKCKVSNKALPAPIEKTISKAKGQPREPQVYTLPPSREEMTKNQVSLTCLVKGFYPSDIAVEWESNGQPENNYKTTPPVLDSDGSFFLYSKLTVDKSRWQQGNVFSCSVMHEALHNAYTQKSLSLSPGK
light: ATQLTQSPSSLSASVGDRVTISCRASEGVYSYMHWYQQKPGKQPKLLIYKASNLASGVPSRFSGSGSGTDFTLTISSLQPEDFATYFCHQNWNDPLTFGQGTKLEIKGGSGGGGSGGETVLTQSPATLSLSPGERATLSCRASESVSTLMHWYQQKPGQQPRLLIYGASNLESGVPARFSGSGSGTDFTLTISSLEPEDFAVYFCQQSWNDPWTFGGGTKVEIKRTVAAPSVFIFPPSDEQLKSGTASVVCLLNNFYPREAKVQWKVDNALQSGNSQESVTEQDSKDSTYSLSSTLTLSKADYEKHKVYACEVTHQGLSSPVTKSFNRGEC
notes: DVD-Ig: outer hBEW-1E3.4 (VEGF), inner hBFU-3E2.1 (PDGF), linkers GS-H10 / GS-L10(dR); Human IgG1 L234A, L235A, H435A with kappa light chain

Sequence of VEGF-A (P15692 other isoform, or with tags, fused parts or gaps limits assumed): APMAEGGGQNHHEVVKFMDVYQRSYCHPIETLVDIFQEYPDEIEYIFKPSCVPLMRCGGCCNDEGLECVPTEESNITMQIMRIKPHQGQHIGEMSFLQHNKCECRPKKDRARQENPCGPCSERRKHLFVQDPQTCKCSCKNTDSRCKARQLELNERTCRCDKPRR

In the first assay the target is VEGF-A (UniProt P15692-4 27-191, limits assumed). The assay can be described thus: SPR (Biacore), DVD-Ig captured by anti-human Fc, antigen injected. The method, then:
(§1) For example, approximately 9000 RU of goat anti-human Fc specific polyclonal antibody (Thermo Fisher Scientific Inc., Rockford, Ill.) diluted in 10 mM sodium acetate (pH 4.5) is directly immobilized across a CM5 research grade biosensor chip using a standard amine coupling kit according to manufacturer's instructions and procedures at 25 μg/ml. Unreacted moieties on the biosensor surface were blocked with ethanolamine. For kinetic analysis, rate equations derived from the 1:1 Langmuir binding model were fitted simultaneously to multiple antigen injections (using global fit analysis) with the use of Scrubber 2 (BioLogic Software), Biacore Biaevaluation 4.0.1 software or Biacore T100 Evaluation software. Purified antibodies or DVD-Ig molecules were diluted in running buffer for capture across goat anti-human Fc reaction surfaces. Antibodies or DVD-Ig molecules to be captured as a ligand (1 μg/ml) were injected over reaction matrices at a flow rate of 10 μl/minute. During the assay, all measurements were referenced against the capture surface alone (i.e., with no captured antibody or DVD-Ig molecule). […] The equilibrium dissociation constant KD (M) of the reaction between antibodies and the target antigen was then calculated from the kinetic rate constants by the following formula: KD=Koff/Kₒₙ. Binding was recorded as a function of time and kinetic rate constants were calculated.
In general, Kd refers to the concentration at which binding is half-saturated. A word on the kon: it is the second-order rate constant of association. With B1, the Kd turned out to be 2 pM and the kon is 1.1e+07 M⁻¹ s⁻¹.
The corresponding values for B2 are 3 pM and 8.6e+06 M⁻¹ s⁻¹.
For B3, in that order: 62 pM and 2.1e+06 M⁻¹ s⁻¹.
For B4, the Kd turned out to be 9.8 pM and the on-rate constant (kon) came out at 5.3e+06 M⁻¹ s⁻¹.

In another assay the target is PDGF-BB (UniProt P01127 82-190). Described as above. As for the experimental part: as §1
Sequence of PDGF-BB (P01127 82-190): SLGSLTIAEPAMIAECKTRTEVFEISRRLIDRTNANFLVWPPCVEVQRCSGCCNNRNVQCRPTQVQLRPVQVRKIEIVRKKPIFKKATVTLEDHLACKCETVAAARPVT
As for B1, the dissociation constant (Kd) is 1.2 pM and the kon amounted to 2.4e+07 M⁻¹ s⁻¹.
For B2, in that order: 36 pM and 5.8e+06 M⁻¹ s⁻¹.
The corresponding values for B3 are 0.54 pM and 2.2e+07 M⁻¹ s⁻¹.
For B4, the affinity, expressed as Kd, was 12 pM and the kon was 4.5e+07 M⁻¹ s⁻¹.
